Results on three compounds are retold here after patent US20130017199A1, “SIMULTANEOUS INHIBITION OF PD-L1/PD-L2” (AMPLIMMUNE ,Inc. a corporation, priority 2009, published 2013).

Test [1] deals with CT26 colorectal tumor cells. Kind of test: Established CT26 tumor model, eradication and rechallenge. The conditions noted are these: CTX alone, 100 mg/kg on day 10.
For test [2], the target named is mouse PD-1-Ig (extracellular domain of mouse PD-1 linked to the Fc portion of mouse IgG2a) (mouse) (UniProt Q02242). Kind of test: capture ELISA; PD-1-Ig coated on plate, COS supernatant, anti-human IgG-HRP. (In general: In an ELISA, binding on a coated surface is turned into a signal by an enzyme label.)
Sequence of UniProt Q02242 (Q02242 25-169): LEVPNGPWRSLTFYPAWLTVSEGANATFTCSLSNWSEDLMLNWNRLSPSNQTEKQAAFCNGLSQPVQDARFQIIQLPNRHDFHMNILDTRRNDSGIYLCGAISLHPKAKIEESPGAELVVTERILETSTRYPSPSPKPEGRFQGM

Consider `O=P1(N(CCCl)CCCl)NCCCO1` (stereo not drawn) [CTX, cyclophosphamide], for which the “outcome of tumor bearing mice” value in test [1] is “died as a result of tumor growth or were euthanized”.
For the compound “mouse B7-H1-Ig F67A (from UniProt Q9EP73 19-239) (Fc fusion)”, the Binding activity ELISA (%) in test [2] turned out to be 2%.
On the same count and under the same terms, in the case of “mouse B7-H1-Ig I115A (from UniProt Q9EP73 19-239) (Fc fusion)” it was 3%.
